Here are results for 125 sequences from the supplement of paper PMC9112550, “Optimization of the antimicrobial peptide Bac7 by deep mutational scanning” (BMC Biology, 2022).
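Also: peptides expressed intracellularly from a pBAD plasmid library in pooled LB shake-flask culture, induced with 0.3% L-arabinose, DNA abundance read by NGS, three biological replicates, DESeq2 with apeglm shrinkage.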

For this series, the system named is Escherichia coli TOP10. The experiment in a line: shrunken log2 fold change of peptide-encoding DNA abundance (4.5 h post-induction vs induction); higher = less antimicrobial activity (less host growth inhibition). Conditions: time post-induction: 4.5 h; library: site-saturation at positions 5, 18, 19, 20.
On to RRIRPRPPRLPRPRPRPWPCPRP, for which the “shrunken log2 fold change” value was determined as 0.0872.
Next, RRIRCRPPRLPRPRPRPCILPRP: -1.1; RRIRGRPPRLPRPRPRPVFYPRP: -0.0818.
Next, RRIRDRPPRLPRPRPRPFDIPRP: 0.289; RRIRPRPPRLPRPRPRPNTHPRP: -0.00792; RRIRDRPPRLPRPRPRPVLAPRP: 0.805.
Take RRIRDRPPRLPRPRPRPQEEPRP: the “shrunken log2 fold change” value was -0.0321.
Under RRIRFRPPRLPRPRPRPLENPRP stands -0.0435.
Under RRIRSRPPRLPRPRPRPFCEPRP stands -0.0573; under RRIRPRPPRLPRPRPRPFQLPRP, -0.0657; under RRIRIRPPRLPRPRPRPRFIPRP, -0.636.
As to RRIRYRPPRLPRPRPRPRERPRP, the “shrunken log2 fold change” value came out at 0.126.
Take RRIRTRPPRLPRPRPRPRHGPRP: the “shrunken log2 fold change” value came out at 0.745.
As to RRIRKRPPRLPRPRPRPKPHPRP, the “shrunken log2 fold change” value was 0.747.
Regarding RRIRCRPPRLPRPRPRPFTNPRP, the “shrunken log2 fold change” value was -0.685.
In the case of RRIRPRPPRLPRPRPRPTMRPRP, the “shrunken log2 fold change” value worked out at 0.744.
On to RRIRSRPPRLPRPRPRPPFRPRP, for which the “shrunken log2 fold change” value is 0.193.
As to RRIRCRPPRLPRPRPRPQVAPRP, the “shrunken log2 fold change” value stood at 0.0924.
Under RRIRFRPPRLPRPRPRPGSVPRP stands -0.147.
RRIRFRPPRLPRPRPRPWKNPRP: the “shrunken log2 fold change” value stood at 0.0106.
On to RRIRMRPPRLPRPRPRPEPQPRP, for which the “shrunken log2 fold change” value stood at 2.17.
Regarding RRIRGRPPRLPRPRPRPPLIPRP, the “shrunken log2 fold change” value came to 0.669.
Turning to RRIRMRPPRLPRPRPRPSPDPRP, the “shrunken log2 fold change” value turned out to be 1.19.
RRIRLRPPRLPRPRPRPIMPPRP: the “shrunken log2 fold change” value was -0.459.
Consider RRIRQRPPRLPRPRPRPRQRPRP, for which the “shrunken log2 fold change” value worked out at 0.245.
Consider RRIRGRPPRLPRPRPRPPRGPRP, for which the “shrunken log2 fold change” value amounted to 0.938.
RRIRIRPPRLPRPRPRPLGYPRP: the “shrunken log2 fold change” value was -0.303.
With RRIRARPPRLPRPRPRPDSDPRP, the “shrunken log2 fold change” value is -0.0357.
As to RRIRGRPPRLPRPRPRPLCDPRP, the “shrunken log2 fold change” value amounted to 0.778.
Next, RRIRTRPPRLPRPRPRPVEAPRP: 0.0918; RRIRLRPPRLPRPRPRPQHSPRP: -0.337.
Turning to RRIRGRPPRLPRPRPRPQKRPRP, the “shrunken log2 fold change” value is 0.662.
Regarding RRIRKRPPRLPRPRPRPIMAPRP, the “shrunken log2 fold change” value was 0.0791.
For RRIRTRPPRLPRPRPRPFRCPRP, the “shrunken log2 fold change” value came to 0.0246.
As to RRIRWRPPRLPRPRPRPQHHPRP, the “shrunken log2 fold change” value was -0.475.
Regarding RRIRRRPPRLPRPRPRPGVQPRP, the “shrunken log2 fold change” value was -0.00257.
Consider RRIRNRPPRLPRPRPRPPHSPRP, for which the “shrunken log2 fold change” value is 0.183.
Turning to RRIRLRPPRLPRPRPRPDYRPRP, the “shrunken log2 fold change” value was -0.0122.
Under RRIRKRPPRLPRPRPRPEQRPRP stands 0.431.
With RRIRMRPPRLPRPRPRPWIRPRP, the “shrunken log2 fold change” value is -0.167.
Regarding RRIRPRPPRLPRPRPRPQWFPRP, the “shrunken log2 fold change” value is -0.0872.
On to RRIRHRPPRLPRPRPRPFIWPRP, for which the “shrunken log2 fold change” value is -0.162.
Turning to RRIRIRPPRLPRPRPRPAKQPRP, the “shrunken log2 fold change” value came out at 0.0314.
For the sequence RRIRFRPPRLPRPRPRPRHPPRP, the “shrunken log2 fold change” value came to 0.0568.
For RRIRKRPPRLPRPRPRPYTIPRP, the “shrunken log2 fold change” value is -0.0634.
Take RRIRPRPPRLPRPRPRPNRRPRP: the “shrunken log2 fold change” value was -0.0942.
With RRIRCRPPRLPRPRPRPQDDPRP, the “shrunken log2 fold change” value stood at 0.0976.
Next, RRIRRRPPRLPRPRPRPQEDPRP: 0.108; RRIRGRPPRLPRPRPRPRIKPRP: 0.487; RRIRQRPPRLPRPRPRPLHWPRP: 0.0127.
Next, RRIRYRPPRLPRPRPRPHQFPRP: -0.984; RRIRRRPPRLPRPRPRPGTSPRP: 0.0636; RRIRGRPPRLPRPRPRPTRSPRP: 1.18.
Next, RRIRSRPPRLPRPRPRPRIEPRP: 0.753.
With RRIRRRPPRLPRPRPRPVVIPRP, the “shrunken log2 fold change” value worked out at 0.0625.
On to RRIRIRPPRLPRPRPRPWVPPRP, for which the “shrunken log2 fold change” value was -0.28.
On to RRIRKRPPRLPRPRPRPHYFPRP, for which the “shrunken log2 fold change” value is -0.268.
Consider RRIRPRPPRLPRPRPRPKGPPRP, for which the “shrunken log2 fold change” value was found to be 0.641.
On to RRIRIRPPRLPRPRPRPKDYPRP, for which the “shrunken log2 fold change” value is -0.603.
Next, RRIRGRPPRLPRPRPRPKPFPRP: 0.601; RRIRARPPRLPRPRPRPYGKPRP: -0.747; RRIRERPPRLPRPRPRPHQMPRP: -0.0399.
With RRIRLRPPRLPRPRPRPYPVPRP, the “shrunken log2 fold change” value was -0.025.
Next, RRIRCRPPRLPRPRPRPGFIPRP: 0.067.
RRIRLRPPRLPRPRPRPKKIPRP: the “shrunken log2 fold change” value is -0.104.
For RRIRHRPPRLPRPRPRPKRTPRP, the “shrunken log2 fold change” value was 0.00166.
In the case of RRIRKRPPRLPRPRPRPTSYPRP, the “shrunken log2 fold change” value is -0.152.
In the case of RRIRARPPRLPRPRPRPLGDPRP, the “shrunken log2 fold change” value worked out at 0.281.
Under RRIRVRPPRLPRPRPRPAAMPRP stands 0.347.
For RRIRMRPPRLPRPRPRPMPRPRP, the “shrunken log2 fold change” value worked out at 0.561.
RRIRYRPPRLPRPRPRPIWDPRP: the “shrunken log2 fold change” value is -0.13.
With RRIRHRPPRLPRPRPRPFVEPRP, the “shrunken log2 fold change” value is -0.45.
Under RRIRVRPPRLPRPRPRPESTPRP stands 0.108.
RRIRFRPPRLPRPRPRPLEHPRP: the “shrunken log2 fold change” value turned out to be 0.0403.
Next, RRIRVRPPRLPRPRPRPFKTPRP: 0.146; RRIRVRPPRLPRPRPRPLDDPRP: 0.00726; RRIRARPPRLPRPRPRPFGTPRP: -0.194.
Under RRIRKRPPRLPRPRPRPNFAPRP stands 0.155; under RRIRDRPPRLPRPRPRPKHEPRP, 0.134; under RRIRCRPPRLPRPRPRPPQAPRP, 0.735.
Consider RRIRGRPPRLPRPRPRPTLEPRP, for which the “shrunken log2 fold change” value turned out to be 1.22.
Next, RRIRDRPPRLPRPRPRPAWCPRP: 0.183; RRIRYRPPRLPRPRPRPKFGPRP: -0.000463.
In the case of RRIRQRPPRLPRPRPRPYMMPRP, the “shrunken log2 fold change” value was found to be 0.00408.
On to RRIRVRPPRLPRPRPRPSHDPRP, for which the “shrunken log2 fold change” value is -0.159.
Turning to RRIRERPPRLPRPRPRPMPHPRP, the “shrunken log2 fold change” value is -0.083.
For RRIRSRPPRLPRPRPRPVDEPRP, the “shrunken log2 fold change” value was -0.216.
Turning to RRIRWRPPRLPRPRPRPRNYPRP, the “shrunken log2 fold change” value is -0.169.
As for RRIRKRPPRLPRPRPRPHCVPRP, the “shrunken log2 fold change” value was -0.0287.
Next, RRIRPRPPRLPRPRPRPWKDPRP: -0.0368.
For the sequence RRIRVRPPRLPRPRPRPCPQPRP, the “shrunken log2 fold change” value was -0.0828.
In the case of RRIRWRPPRLPRPRPRPHWMPRP, the “shrunken log2 fold change” value came out at 0.289.
In the case of RRIRKRPPRLPRPRPRPLYPPRP, the “shrunken log2 fold change” value is -0.177.
For the sequence RRIRVRPPRLPRPRPRPMFYPRP, the “shrunken log2 fold change” value was -0.725.
RRIRRRPPRLPRPRPRPTHQPRP: the “shrunken log2 fold change” value is 0.414.
Consider RRIRERPPRLPRPRPRPGIWPRP, for which the “shrunken log2 fold change” value was determined as 0.139.
Under RRIRTRPPRLPRPRPRPLDGPRP stands 0.0872; under RRIRYRPPRLPRPRPRPIKTPRP, -0.154; under RRIRARPPRLPRPRPRPVMLPRP, -0.19.
For the sequence RRIRTRPPRLPRPRPRPAFTPRP, the “shrunken log2 fold change” value is 0.0137.
With RRIRLRPPRLPRPRPRPNVVPRP, the “shrunken log2 fold change” value was -0.19.
On to RRIRMRPPRLPRPRPRPKNIPRP, for which the “shrunken log2 fold change” value was -0.232.
On to RRIRERPPRLPRPRPRPIKSPRP, for which the “shrunken log2 fold change” value was -0.611.
As for RRIRMRPPRLPRPRPRPMNYPRP, the “shrunken log2 fold change” value was -0.082.
For RRIRMRPPRLPRPRPRPLTEPRP, the “shrunken log2 fold change” value was determined as 1.31.
Take RRIRGRPPRLPRPRPRPMFRPRP: the “shrunken log2 fold change” value turned out to be 0.303.
For the sequence RRIRARPPRLPRPRPRPCSAPRP, the “shrunken log2 fold change” value was 0.356.
Consider RRIRMRPPRLPRPRPRPDTGPRP, for which the “shrunken log2 fold change” value came to 0.112.
RRIRTRPPRLPRPRPRPAKYPRP: the “shrunken log2 fold change” value was -0.355.
Regarding RRIRKRPPRLPRPRPRPDLTPRP, the “shrunken log2 fold change” value is -0.000918.
For RRIRHRPPRLPRPRPRPSRLPRP, the “shrunken log2 fold change” value came to 0.39.
With RRIRYRPPRLPRPRPRPKVSPRP, the “shrunken log2 fold change” value was -0.0576.
Consider RRIRHRPPRLPRPRPRPLPPPRP, for which the “shrunken log2 fold change” value worked out at 0.196.
In the case of RRIRLRPPRLPRPRPRPQRSPRP, the “shrunken log2 fold change” value stood at 0.16.
For RRIRFRPPRLPRPRPRPIDKPRP, the “shrunken log2 fold change” value was -0.499.
Consider RRIRCRPPRLPRPRPRPKQFPRP, for which the “shrunken log2 fold change” value was -0.188.
Take RRIRGRPPRLPRPRPRPWPTPRP: the “shrunken log2 fold change” value was 0.233.
Take RRIRLRPPRLPRPRPRPIYYPRP: the “shrunken log2 fold change” value is -0.561.
Turning to RRIRERPPRLPRPRPRPINRPRP, the “shrunken log2 fold change” value was -0.017.
Under RRIRYRPPRLPRPRPRPETMPRP stands -0.062.
With RRIRHRPPRLPRPRPRPRENPRP, the “shrunken log2 fold change” value was 0.0589.
On to RRIRWRPPRLPRPRPRPEQVPRP, for which the “shrunken log2 fold change” value is 0.21.
For the sequence RRIRARPPRLPRPRPRPYWNPRP, the “shrunken log2 fold change” value is -0.566.
As for RRIRLRPPRLPRPRPRPDEAPRP, the “shrunken log2 fold change” value was 0.189.
Under RRIRHRPPRLPRPRPRPWHTPRP stands -0.566.
